pKd: −log10 of the molar value.

The target of this assay is Human FcRn (neonatal Fc-receptor), C-terminally biotinylated (human) (UniProt P55899). Kind of assay: SPR; pH 6.0. (SPR reads the build-up and loss of mass on a sensor chip optically.)
Take GDob1 IgG2 (from UniProt P01859): the pKd was 7.41.

As for GDob1 IgG2 + G236 (from UniProt P01859), the pKd is 7.38.

As to GDob1 IgG1 (from UniProt P01857), the pKd was 7.63.

In the case of GDob1 IgG1ΔG236 (from UniProt P01857), the pKd is 7.60.

By pKd is commonly meant −log10 of the Kd, conventionally taken in molar units. Higher therefore signals a small Kd.
